{
  "source": "the nanobody polyreactivity screen of Harvey et al. (2022)",
  "data": [
    {"test": "yeast display, Sf9 membrane polyspecificity reagent, FACS + sequencing; frameworks hold sequencing errors", "how_it_was_run": "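Galactose-induced (36–48 hours) yeast carrying a synthetic nanobody display library were exposed to 10% biotinylated, detergent-solubilized Sf9 membrane reagent at 4 °C for 1 hour. FACS followed streptavidin microbead enrichment, using low and high (top ~1%) gates for expression (anti-HA) and reagent binding (streptavidin). Colony PCR, MiSeq 2 × 250 sequencing and CDR-length filtering followed. Labels for polyreactivity reflect the gate of origin.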", "values": [
      {"sequence": "QVQLVESGGGLVQAGGSLRLSCAASGSIFEGNGMGWYRQAPGKERELVAAITFRSGSTYYADSVKGRFTISRDNAKNTVYLQMNSLKPEDTAVYYCAADEYYEVSAYDYWGQGTQVTVSS", "polyreactivity (PSR sort gate)": "low polyreactivity"},
      {"sequence": "QVQLVESGGGLVQAGGSLRLSCAASGSIFEGYAMGWYRQAPGKERELVAAISRSGGSTYYADSVKGRFPISRDNAKNTVYLQMNSLKPEDTAVYYCAARKAIDYQGRHDHWGQGTQVTVSS", "polyreactivity (PSR sort gate)": "low polyreactivity"},
      {"sequence": "QVQLVESGGGLVQAGGSLRLSCAASGSIFEGYAMGWYRQAPGKERELVARITSDDDSTYYADSVKGRFTISRDNAKNTVYLQMNSLKPEDTAVYYCNADYYCTSLAMDSWGQGTQVTVSS", "polyreactivity (PSR sort gate)": "low polyreactivity"},
      {"sequence": "QVQLVESGGGLVQAGGSLRLSCAASGSIFEGYVMGWYRPAPGKVRELVAAISWSGGSTYYADSVKGRFTISRDNAKNTVYLQMNSLKPEDTAVYYCAAYGYDRYGRTRYNSWGQGTQVTVSS", "polyreactivity (PSR sort gate)": "high polyreactivity"},
      {"sequence": "QVQLVESGGGLVQAGGSLRLSCAASGSIFEIYDMGWYRQAPGKERELVASIRTSGGSTYYAESVKGRFTISRDNAKNTVYLLMNSLKPEDTAVYYCATGWSWYHPDYDYWGQGTQVTVSS", "polyreactivity (PSR sort gate)": "low polyreactivity"},
      {"sequence": "QVQLVESGGGLVQAGGSLRLSCAASGSIFELYAMGWYRQAPGKDRELVASITWSSSNTHYADSVKGRFTISRDNAKNTVYLQMNSMKPEDTAVYYCAKDVLYGQFDGDSWGQGNQVTVSS", "polyreactivity (PSR sort gate)": "low polyreactivity"},
      {"sequence": "QVQLVESGGGLVQAGGSLRLSCAASGSIFELYAMGWYRQAPGKERELVAAISSTGGRTYYADSVKGRFTISRDNAKNTVYLQMNSLKPEDTAVYYCNKVWPRVHPWNYDYWGQGTQVTVSS", "polyreactivity (PSR sort gate)": "high polyreactivity"},
      {"sequence": "QVQLVESGGGLVQAGGSLRLSCAASGSIFENYAMGCYRQAPGKERELVAAISSSGDSTYYADSVKGRFTISRDNAKNTVYLQMNSLKPEDTAVYYCAKGYRRVYGPFYYWGQVTQVTVSS", "polyreactivity (PSR sort gate)": "low polyreactivity"},
      {"sequence": "QVQLVESGGGLVQAGGSLRLSCAASGSIFEQNAMGWYRQAPGKERELVAAITWSGDSTYYADSVKGRFTISRDNAKNTVYLQMNSLKPEDTAVYYCAKEFGGTKRYGWYNYWGQGTQVTVSS", "polyreactivity (PSR sort gate)": "low polyreactivity"},
      {"sequence": "QVQLVESGGGLVQAGGSLRLSCAASGSIFERNAMGWYRQAPGKERELVAVITGSGGSTYYADSVKGRFTISRDNAKNTVYLQMNSLKPEDTAVYYCAAPVHTASGRWVPGYYYWGQGTQVTVSS", "polyreactivity (PSR sort gate)": "high polyreactivity"},
      {"sequence": "QVQLVESGGGLVQAGGSLRLSCAASGSIFERYAMGWYRQAPGKERELVAAITWTGGSTYYADSVKGRFTISRDNAQNTVYLQMNSLKPEDTAVYYCAADYLYPLWGWYDYWGQGTQVTVSS", "polyreactivity (PSR sort gate)": "low polyreactivity"},
      {"sequence": "QVQLVESGGGLVQAGGSLRLSCAASGSIFESNAMGWYRQAPGKERELVADITYRGTRTYYADSVKGRFTISRDNAKNTVYLQMNSLKPEDTAVYYCAVWQDHYDWGQGTQVTVSS", "polyreactivity (PSR sort gate)": "low polyreactivity"},
      {"sequence": "QVQLVESGGGLVQAGGSLRLSCAASGSIFESYAMGWYRQAPGKEREFVAAISDSGADTYYADSVKGRFTISRDNAKNTVYLQMNSLKPEDTAVYYCNADKEFAVLGQGMDYWGQGTQVTVSS", "polyreactivity (PSR sort gate)": "low polyreactivity"},
      {"sequence": "QVQLVESGGGLVQAGGSLRLSCAASGSIFESYAMGWYRQAPGKERELVAAIDSGDSTYYADSVKGRFTISRDNAKNTVYLQMNSLKPEDTAVYYCAAGYLFLKRIWQSRMDYWGQGTQVTVSS", "polyreactivity (PSR sort gate)": "low polyreactivity"},
      {"sequence": "QVQLVESGGGLVQAGGSLRLSCAASGSIFESYAMGWYRQAPGKERELVAAITKRGGSTYYADSVKGRFTISRDNAKYTVYLQMNSLKPEDTAVYYCNARWPGIGPIYDYWGQGSQVTVSS", "polyreactivity (PSR sort gate)": "low polyreactivity"},
      {"sequence": "QVQLVESGGGLVQAGGSLRLSCAASGSIFESYAMGWYRQAPGKERELVAAITSSGDSTYYADSVKGRFTISRDNAKNTVYLQMNSLKPEDTAVDYCAKRVPTYISTADWGSRYDYWGQGTQVTVSS", "polyreactivity (PSR sort gate)": "low polyreactivity"},
      {"sequence": "QVQLVESGGGLVQAGGSLRLSCAASGSIFEVNAMGWYTQAPGKERELVATITYSGGSTYYADSVKGRFTISRDNAKNTVYLQMNSLKPEDTAVYYCATDYVDWELYIYDYWGQGTQVTVSS", "polyreactivity (PSR sort gate)": "low polyreactivity"},
      {"sequence": "QVQLVESGGGLVQAGGSLRLSCAASGSIFEWYAMGWYRQAPGKERELVAAINSGGSTYYADSVQGRFTISRDNAKNTVYLQMNSLKPEDTAVYYCNYDTLLQDRLGDWYDYDYWGQGTQVTVSS", "polyreactivity (PSR sort gate)": "low polyreactivity"},
      {"sequence": "QVQLVESGGGLVQAGGSLRLSCAASGSIFEWYAMGWYRQEPGKERELVADITYNGGSTYYADSVKGRFTISRDNAKNTVYLQMNSLKPEDSAVYYCNKDIERYVSIYDSWGQGTQVTVSS", "polyreactivity (PSR sort gate)": "low polyreactivity"},
      {"sequence": "QVQLVESGGGLVQAGGSLRLSCAASGSIFEYYAMGWYREAPGKERELVAAITSSGASTYYADSVKGHFTISRDNAKNSVYLQMNSLKPEDTAVYYCAKEVIRYSQYIFDYWGQGTQVTVSS", "polyreactivity (PSR sort gate)": "low polyreactivity"},
      {"sequence": "QVQLVESGGGLVQAGGSLRLSCAASGSIFEYYAMGWYRQAPGKERELVASITSGGRTYYADSVKGRFTISRDNAKNTVYLQMNSLKPEDTAVYYCAAAYYNWGYTFYWGQGTQVTVSS", "polyreactivity (PSR sort gate)": "high polyreactivity"},
      {"sequence": "QVQLVESGGGLVQAGGSLRLSCAASGSIFEYYTMGWYRQAPGKEREFVAAITFTGDSTYYADSVKGRFTISRDNAKNTVYLQMNSLKPEDTAVYYCNADSVTYDGEYDYWGQGTQVTVSS", "polyreactivity (PSR sort gate)": "low polyreactivity"},
      {"sequence": "QVQLVESGGGLVQAGGSLRLSCAASGSIFEYYVMGWYRQAPGKERELVAAISYSGDSTYYADSVKGRFTISRDNAKNTVYLQMNSLKPEDTAVYYCAAQYTRVIPPGYDYWGQGTQVTVSS", "polyreactivity (PSR sort gate)": "high polyreactivity"},
      {"sequence": "QVQLVESGGGLVQAGGSLRLSCAASGSIFFDGNAMGWYRQAPGKERELVAAISVSGGSTYYADSVKGRFTISRDNAKNTVYLQMNSLKPEDTAVYYCAKYPSKSFVPGDYWGQGTQVTVSS", "polyreactivity (PSR sort gate)": "low polyreactivity"},
      {"sequence": "QVQLVESGGGLVQAGGSLRLSCAASGSIFFEYAMGWYRQATGKERELVAAISRRGGSTYYADSVKGRFTISRDNAKNTVYVQMNSLKPEDTAVYYCNKVNRASRGDYDYWGQGTQVTVSS", "polyreactivity (PSR sort gate)": "high polyreactivity"},
      {"sequence": "QVQLVESGGGLVQAGGSLRLSCAASGSIFFFYALGWYRQAPGNERELVAAISKSPSSTYYADSVKGRFTISRDNAKKTVYVQMNSLKPEDTAVYYCNTGYSGIQYYYWGQGTQVTVSS", "polyreactivity (PSR sort gate)": "low polyreactivity"},
      {"sequence": "QVQLVESGGGLVQAGGSLRLSCAASGSIFFINAMGWYRQAPGKERELVADITSGGGTYYADSVKGRFTISRDNAKNTVYLQMNSLKPVDTAVYYCAKEYGFTGYGYWGQCTQVTVSS", "polyreactivity (PSR sort gate)": "low polyreactivity"},
      {"sequence": "QVQLVESGGGLVQAGGSLRLSCAASGSIFFKYTLGWYRQAPGKERELVAAISYSGGRTYYADSVKGRFTISRDTAKNTVYLQMNSLKPEDTAVYDGATRDEITHGDRMDYWGQGTQVTVSS", "polyreactivity (PSR sort gate)": "low polyreactivity"},
      {"sequence": "QVQLVESGGGLVQAGGSLRLSCAASGSIFFKYTMGWYRQAPGKERELVAAITYTGGRTYYADSVKGRFTISRDNAKNTVYLQMNSLKPEDTAVYFCNKVTPRQGNRLAGVSGYDYWGQGTQVTVSS", "polyreactivity (PSR sort gate)": "high polyreactivity"},
      {"sequence": "QVQLVESGGGLVQAGGSLRLSCAASGSIFFLYAMGWYRQAPGKERELVAAISRDGRTNYADSVKGRFTISRDNAKNTVYLQMNSLKPEDTAVYYCAKDGNHPGAVVYGYWGQRTQVTVSS", "polyreactivity (PSR sort gate)": "low polyreactivity"},
      {"sequence": "QVQLVESGGGLVQAGGSLRLSCAASGSIFFLYAMGWYRQAPGKERELVASISRGDSTNYADSVKGRFTISRDNAKNTVYLQMNSLKPEDTAVYYCAAYRLYWPSTARRYDYWGQGTQVTVSS", "polyreactivity (PSR sort gate)": "low polyreactivity"},
      {"sequence": "QVQLVESGGGLVQAGGSLRLSCAASGSIFFLYGMGWYRQAPGKERELVAAIRKRGSSTYYADSVKGRFTISRDNAKNTVYLQMNSLKPEDTAVYYCAAAALGYYGYRGFDYWGQGTQVTVSS", "polyreactivity (PSR sort gate)": "low polyreactivity"},
      {"sequence": "QVQLVESGGGLVQAGGSLRLSCAASGSIFFPNAMGWYRQAPGKERELVAAITSTSTNYADSVKGRCTNSRDNAKNTVYLQLNSLKPEDTAVYYCAADGEFRRAWYEGDYWGQGTQVTVSS", "polyreactivity (PSR sort gate)": "low polyreactivity"},
      {"sequence": "QVQLVESGGGLVQAGGSLRLSCAASGSIFFPYAMGWYIQAPGKERELVAAITGSTGSTYYADSVKGRFTISRDNAKNTVYLQMNSLKPEDTAVYYCAAAEYFVSGGIMDYWGQGTQVTVSS", "polyreactivity (PSR sort gate)": "high polyreactivity"},
      {"sequence": "QVQLVESGGGLVQAGGSLRLSCAASGSIFFPYTMGWYRQAPGKERELVAAISERGGDTYYADSVKGRFTISRDNAKNTVYLQMNSLKPEDTAVYDCAAATSPISTSDYWGQGTQVTVSS", "polyreactivity (PSR sort gate)": "low polyreactivity"},
      {"sequence": "QVQLVESGGGLVQAGGSLRLSCAASGSIFFPYVMGWYRQAPGKERELVAAITYRAGSTYYADSVKGRFTISRDHAKNTFYLQMNSLKPEDTAVYYCNKEAAPLGFVTSYYGRDYWGQGTQVTVSS", "polyreactivity (PSR sort gate)": "low polyreactivity"},
      {"sequence": "QVQLVESGGGLVQAGGSLRLSCAASGSIFFQNAMGWYRQAPGKERELVATITSSVGSTYYADSVKGRFTISRDNAKNTVYFQMNSLKPEDTAVYYCNVRFFSAALWYTYFGYDYWGQGTQVTVSS", "polyreactivity (PSR sort gate)": "low polyreactivity"},
      {"sequence": "QVQLVESGGGLVQAGGSLRLSCAASGSIFFRNAMGWYRQAPGKERELVAAITSGGGTYYADSVKGRLTISRDNAKNTVYLQMNSLKPEDTAVYYCAVVRGSRAIKHYYWGQGTQVTVSS", "polyreactivity (PSR sort gate)": "high polyreactivity"},
      {"sequence": "QVQLVESGGGLVQAGGSLRLSCAASGSIFFRNVMGWYRQAPGKERELVAAISRSGSTNYADSVKGRFTISRDNAKNTVYLQMNSLKPEDTAVYYCAAQQWRRGRYRDTAGPMFAYDYWGQGTQVTVSS", "polyreactivity (PSR sort gate)": "low polyreactivity"},
      {"sequence": "QVQLVESGGGLVQAGGSLRLSCAASGSIFFSNAMGWYRQAPGKERELVAAITSTGGSTYYADSVKGRFTISRDNAKNTVYLQMNSLKPEDTAVYYCAAASRRGYYYWGQGTQVTVSS", "polyreactivity (PSR sort gate)": "high polyreactivity"},
      {"sequence": "QVQLVESGGGLVQAGGSLRLSCAASGSIFFSNVMGWYRQAPGKERELVAAITGRTGSTYYADSVKGRFTISRDNAKNTVYLQMNSLKPEDTAVYYCFSYWPRYWQSGNDYWGQGTQVTVSS", "polyreactivity (PSR sort gate)": "high polyreactivity"},
      {"sequence": "QVQLVESGGGLVQAGGSLRLSCAASGSIFFSYAMGWYRQAPGKEREGGSTDYADSVKGRFTISRDNAKNTVYLQMNSLKPEDTAVYYCAASVRGIRYDYWGQGTQVTVSS", "polyreactivity (PSR sort gate)": "low polyreactivity"},
      {"sequence": "QVQLVESGGGLVQAGGSLRLSCAASGSIFFSYAMGWYRQAPGKERELVAAIDYSGGGTYYADSVKGRFTISRDNAKNTVYLQMNSLKPEDTAVYYCNSDTEVWADTFISYRALNYWGQGTQVTVSS", "polyreactivity (PSR sort gate)": "low polyreactivity"}
    ]}
  ]
}
